# B1: in vitro–translated 35S-labeled ORP1L (full length) (natural protein, human, UniProt Q9BXW6-1 1-950, looked up)
# chain: MNTEAEQQLLHHARNGNAEEVRQLLETMARNEVIADINCKGRSKSNLGWTPLHLACYFGHRQVVQDLLKAGAEVNVLNDMGDTPLHRAAFTGRKELVMLLLEYNADTTIVNGSGQTAKEVTHAEEIRSMLEAVERTQQRKLEELLLAAAREGKTTELTALLNRPNPPDVNCSDQLGNTPLHCAAYRAHKQCALKLLRSGADPNLKNKNDQKPLDLAQGAEMKHILVGNKVIYKALKRYEGPLWKSSRFFGWRLFWVVLEHGVLSWYRKQPDAVHNIYRQGCKHLTQAVCTVKSTDSCLFFIKCFDDTIHGFRVPKNSLQQSREDWLEAIEEHSAYSTHYCSQDQLTDEEEEDTVSAADLKKSLEKAQSCQQRLDREISNFLKMIKECDMAKEMLPSFLQKVEVVSEASRETCVALTDCLNLFTKQEGVRNFKLEQEQEKNKILSEALETLATEHHELEQSLVKGSPPASILSEDEFYDALSDSESERSLSRLEAVTARSFEEEGEHLGSRKHRMSEEKDCGGGDALSNGIKKHRTSLPSPMFSRNDFSIWSILRKCIGMELSKITMPVIFNEPLSFLQRLTEYMEHTYLIHKASSLSDPVERMQCVAAFAVSAVASQWERTGKPFNPLLGETYELVRDDLGFRLISEQVSHHPPISAFHAEGLNNDFIFHGSIYPKLKFWGKSVEAEPKGTITLELLEHNEAYTWTNPTCCVHNIIVGKLWIEQYGNVEIINHKTGDKCVLNFKPCGLFGKELHKVEGYIQDKSKKKLCALYGKWTECLYSVDPATFDAYKKNDKKNTEEKKNSKQMSTSEELDEMPVPDSESVFIIPGSVLLWRIAPRPPNSAQMYNFTSFAMVLNEVDKDMESVIPKTDCRLRPDIRAMENGEIDQASEEKKRLEEKQRAARKNRSKSEEDWKTRWFHQGPNPYNGAQDWIYSGSYWDRNYFNLPDIY
# modifications: 35S-labeled
# Target: GST–Rab7 (wild type, loaded with GTP or GTPγS) (UniProt P51149 1-207)
# Sequence (P51149 whole entry): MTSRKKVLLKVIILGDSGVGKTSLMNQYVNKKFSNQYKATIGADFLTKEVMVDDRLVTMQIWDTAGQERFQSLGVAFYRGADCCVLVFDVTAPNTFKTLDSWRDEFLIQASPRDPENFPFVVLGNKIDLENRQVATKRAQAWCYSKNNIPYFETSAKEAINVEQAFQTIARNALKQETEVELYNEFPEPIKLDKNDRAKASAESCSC
# Assay: pull-down
binder,measurement,value
B1,fold increase of binding in the presence of m9,~4 fold
